Square brackets hold non-standard residues; d marks the D form. Ends that are not written are not given here. Lys(Me) = CNCCCC[C@H](N)C(=O)O
B1: GST-ASHH2-CW (other, Arabidopsis thaliana, UniProt Q2LAE1 850-937, looked up)
chain: VVDVTIEDSYSTESAWVRCDDCFKWRRIPASVVGSIDESSRWICMNNSDKRFADCSKSQEMSNEEINEELGIGQDEADAYDCDAAKRG
notes: domain: CW domain; Expressed in bacteria from pSXG (Eco RI/Bam HI); also called GST-CWASHH2; GST-tagged ASHH2 CW protein; not shown: glutathione-S-transferase (GST) tag encoded by the pSXG vector
B2: synthetic H3 peptide (residues 1-16) ARTK(me1)QTARKSTGGKAY (peptide)
peptide: ART[Lys(Me)]QTARKSTGGKAY
notes: Bought from CASLO and used for NMR at about 1.1:1 with the CW domain; also called histone H3K4me1 peptide (1-15); monomethylated H3K4 peptide

Experiments:
[1] = target: histone H3 trimethylated on lysine 4 in Arabidopsis seedling chromatin (nucleosomes) (Arabidopsis, UniProt P59226 2-136); experiment: chromatin pull-down from Arabidopsis seedlings, quantified western blot
[2] = target: histone H3 dimethylated on lysine 4 in Arabidopsis seedling chromatin (nucleosomes) (Arabidopsis, UniProt P59226 2-136); experiment: as above
[3] = target: histone H3 monomethylated on lysine 4 in Arabidopsis seedling chromatin (nucleosomes) (Arabidopsis, UniProt P59226 2-136); experiment: as above
[4] = target: T1, ASHH2 CW domain (13C/15N labelled, cleaved from GST with thrombin) (Arabidopsis thaliana, UniProt Q2LAE1 850-937, limits assumed, 13C and 15N isotope labelled; binds one Zn2+ through Cys868, 871, 893, 904); experiment: NMR, 15N-1H HSQC chemical shift changes, peptide:CW about 1.1:1
T1 construct: domain: CW domain; Free CW domain used for NMR; The structure is deposited as PDB 2l7p (printed '217p')
T1 sequence (looked up): B1 chain

Row | Binder | bound chromatin relative to input chromatin [1] | bound chromatin relative to input chromatin [2] | bound chromatin relative to input chromatin [3] | binding result [4]
1 | B1 | 2.1 times of input material (2.5%) | 3.3 times of input material (2.5%) | 4.4 times of input material (2.5%) | 
2 | B2 |  |  |  | binds

From patent publication US20140148355A1 (UNIVERSITY OF OSLO, published 2014)
